B1: myosin light chain interacting protein (Mylip) (protein)
chain: MLCYVTRPDAVLMEVEVEAKANGEDCLNQVCRRLGIIEVDYFGLQFTGSKGESLWLNLRNRISQQMDGLAPYRLKLRVKFFVEPHLILQEQTRHIFFLHIKEALLAGHLLCSPEQAVELSALLAQTKFGDYNQNTAKYNYEELCAKELSSATLNSIVAKHKELEGTSQASAEYQVLQIVSAMENYGIEWHSVRDSEGQKLLIGVGPEGISICKDDFSPINRIAYPVVQMATQSGKNVYLTVTKESGNSIVLLFKMISTRAASGLYRAITETHAFYRCDTVTSAVMMQYSRDLKGHLASLFLNENINLGKKYVFDIKRTSKEVYDHARRALYNAGVVDLVSRNNQSPSHSPLKSSESSMNCSSCEGLSCQQTRVLQEKLRKLKEAMLCMVCCEEEINSTFCPCGHTVCCESCAAQLQSCPVCRSRVEHVQHVYLPTHTSLLNLTVI
Chain of apoER2 (Q14114 whole entry): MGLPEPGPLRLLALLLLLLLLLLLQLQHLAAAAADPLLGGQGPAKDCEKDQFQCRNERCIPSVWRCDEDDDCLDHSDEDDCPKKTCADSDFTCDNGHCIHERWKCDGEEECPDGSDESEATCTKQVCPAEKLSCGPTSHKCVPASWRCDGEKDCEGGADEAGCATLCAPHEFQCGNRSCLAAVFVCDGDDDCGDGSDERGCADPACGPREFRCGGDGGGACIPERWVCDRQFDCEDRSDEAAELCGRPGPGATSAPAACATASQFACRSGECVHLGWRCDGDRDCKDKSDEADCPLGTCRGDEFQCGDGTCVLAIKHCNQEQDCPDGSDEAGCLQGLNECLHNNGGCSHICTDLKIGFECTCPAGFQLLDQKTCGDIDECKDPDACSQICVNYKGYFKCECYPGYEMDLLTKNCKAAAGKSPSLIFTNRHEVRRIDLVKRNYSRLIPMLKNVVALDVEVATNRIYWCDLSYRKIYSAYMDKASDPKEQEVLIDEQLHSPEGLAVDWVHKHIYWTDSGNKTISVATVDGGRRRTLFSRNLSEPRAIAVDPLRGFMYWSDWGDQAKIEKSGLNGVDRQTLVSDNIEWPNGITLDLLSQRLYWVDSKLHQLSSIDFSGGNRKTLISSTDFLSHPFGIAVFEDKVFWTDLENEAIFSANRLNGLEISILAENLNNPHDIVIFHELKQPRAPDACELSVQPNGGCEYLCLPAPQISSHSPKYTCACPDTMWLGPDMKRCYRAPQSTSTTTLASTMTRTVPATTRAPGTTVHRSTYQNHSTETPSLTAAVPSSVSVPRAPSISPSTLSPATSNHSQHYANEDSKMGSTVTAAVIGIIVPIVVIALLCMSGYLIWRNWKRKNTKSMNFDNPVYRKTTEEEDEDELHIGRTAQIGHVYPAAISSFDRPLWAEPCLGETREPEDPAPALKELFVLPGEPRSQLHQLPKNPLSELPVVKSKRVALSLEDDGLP
Regarding B1, the “degradation in the cotransfection assay” value is “Several other members, including LRP-1, LRP-1b and the EGFR receptor are not” with LRP-1; “the VLDLR and apoER2, are both capable of being degraded by Idol in our cotransfection assay” with apoER2; “the VLDLR and apoER2, are both capable of being degraded by Idol in our cotransfection assay” with VLDLR; “Several other members, including LRP-1, LRP-1b and the EGFR receptor are not” with LRP-1b; “Several other members, including LRP-1, LRP-1b and the EGFR receptor are not” with EGFR receptor.

The values are drawn from patent publication US8512964.
